In article PMC11054257:

Key:
Test in all cases: SDS-PAGE and Western blot of whole cells (oligomer bands that withstand SDS); 1 OD600 of induced cells in SDS sample buffer, 4~12% SDS-PAGE, PVDF, anti-Flag tag antibody; cells treated with proteinase K or not; positions of monomeric, dimeric and trimeric forms called putative
[1] = target: SadA^644 fused with Flag×3 and the UreB epitopes UreB158–172aa and UreB349–363aa (from pSadBA^644-FU2) (Salmonella typhimurium | Helicobacter pylori SS1) (UniProt P69996)
[2] = target: SadA^877 fused with Flag×3 and the UreB epitopes UreB158–172aa and UreB349–363aa (from pSadBA^877-FU2) (Salmonella typhimurium | Helicobacter pylori SS1) (UniProt P69996)
[3] = target: SadA^877 fused with N-terminal Flag×3-mScarlet (from pSadBA^877-FM) (Salmonella typhimurium)
[4] = target: SadA^1171 fused with Flag×3 and the UreB epitopes UreB158–172aa and UreB349–363aa (from pSadBA^1171-FU2) (Salmonella typhimurium | Helicobacter pylori SS1) (UniProt P69996)
[5] = target: SadA^1292 fused with Flag×3 and the UreB epitopes UreB158–172aa and UreB349–363aa (from pSadBA^1292-FU2) (Salmonella typhimurium | Helicobacter pylori SS1) (UniProt P69996)
[6] = target: SadA^1292 fused with N-terminal Flag×3-UreBm-mScarlet (from pSadBA^1292-FUM) (Salmonella typhimurium | Helicobacter pylori SS1) (UniProt P69996)
[7] = target: SadA^1292 fused with N-terminal Flag×3-mScarlet (from pSadBA^1292-FM) (Salmonella typhimurium)

Substance: SadA^644 fused with Flag×3 and the UreB epitopes UreB158–172aa and UreB349–363aa (from pSadBA^644-FU2) (from UniProt P69996)
- stoichiometry N [1]: 3

Substance: SadA^877 fused with Flag×3 and the UreB epitopes UreB158–172aa and UreB349–363aa (from pSadBA^877-FU2) (from UniProt P69996)
- stoichiometry N [2]: 3

Substance: SadA^877 fused with N-terminal Flag×3-mScarlet (from pSadBA^877-FM)
- stoichiometry N [3]: 3

Substance: SadA^1171 fused with Flag×3 and the UreB epitopes UreB158–172aa and UreB349–363aa (from pSadBA^1171-FU2) (from UniProt P69996)
- stoichiometry N [4]: 3

Substance: SadA^1292 fused with Flag×3 and the UreB epitopes UreB158–172aa and UreB349–363aa (from pSadBA^1292-FU2) (from UniProt P69996)
- stoichiometry N [5]: 3

Substance: SadA^1292 fused with N-terminal Flag×3-UreBm-mScarlet (from pSadBA^1292-FUM) (from UniProt P69996 111-377)
- stoichiometry N [6]: 3

Substance: SadA^1292 fused with N-terminal Flag×3-mScarlet (from pSadBA^1292-FM)
- stoichiometry N [7]: 3
